Reference: patent US20030148484A1 (published 2003)

Biological target: T1, Streptavidin (streptavidin column) (UniProt P22629 37-163, limits assumed)
T1 construct: Immobilised on column matrix
Experiment: affinity column (streptavidin column without kappa)

T1 sequence (P22629 37-163 limits assumed): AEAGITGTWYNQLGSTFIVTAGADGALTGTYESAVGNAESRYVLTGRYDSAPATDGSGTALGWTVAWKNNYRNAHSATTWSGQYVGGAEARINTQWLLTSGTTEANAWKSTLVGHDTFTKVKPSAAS

B1: LHL (growth factor comprising H flanked by two L molecules) (designed binder)
chain: MKKTAIAIAVALAGFATVAQAAPKDNTEEVTIKANLIFANGSTQTAEFKGTFEKATSEAYAYADTLKKDNGEYTVDVADKGYTLNIKFAGKEATNRNTDGSTDYGILQINSRWGGLTLKEEVTIKANLIFANGSTQTAEFKGTFEKATSEAYAYADTLKKDNGEYTVDVADKGYTLNIKFAG
notes: also called LIIL [sic]
binding result: no binding
